Source: article PMC8049779 (Biochemistry, 2020)
Where a chain is given by its changes, count along the chain named. Numbers in names are those of the source.

T1: LmFPPS (Leishmania major, UniProt Q4QBL1)
T1 sequence (Q4QBL1 1-362): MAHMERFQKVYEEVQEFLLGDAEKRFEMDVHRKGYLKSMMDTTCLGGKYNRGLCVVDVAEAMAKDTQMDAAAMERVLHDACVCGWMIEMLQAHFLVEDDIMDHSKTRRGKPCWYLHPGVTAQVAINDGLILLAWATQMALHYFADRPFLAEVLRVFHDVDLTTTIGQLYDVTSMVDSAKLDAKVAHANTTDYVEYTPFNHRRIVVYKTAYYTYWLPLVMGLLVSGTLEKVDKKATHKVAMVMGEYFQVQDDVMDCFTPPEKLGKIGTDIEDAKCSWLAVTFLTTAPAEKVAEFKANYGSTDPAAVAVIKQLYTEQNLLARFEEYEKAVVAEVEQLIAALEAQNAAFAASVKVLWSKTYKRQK

B1: E97Y-LmFPPS (Leishmania major farnesyl diphosphate synthase, E97Y mutant) (enzyme)
chain: T1 sequence (Q4QBL1 1-362) with E97Y
B2: T164W-LmFPPS (Leishmania major farnesyl diphosphate synthase, T164W mutant) (enzyme)
chain: T1 sequence (Q4QBL1 1-362) with T164W
B3: T164Y-LmFPPS (Leishmania major farnesyl diphosphate synthase, T164Y mutant) (enzyme)
chain: T1 sequence (Q4QBL1 1-362) with T164Y

Assays:
LmFPPS = molecular target: T1, LmFPPS; experiment: SPR, steady-state affinity, protein immobilized on CM5 chip; format: binding
crystal structure = molecular target: the molecule itself; experiment: crystal structure

Molecule | Kd (LmFPPS) | binding result (crystal structure)
CC(C)=CCC/C(C)=C/COP(=O)(O)OP(=O)(O)O [GPP] | 0.049 µM | –
CC(C)=CCC/C(C)=C/CC/C(C)=C/CO[P@@](=O)(O)OP(=O)(O)O [FPP] | 36.6 µM | –
B1 | – | binds
B2 | – | binds
B3 | – | binds
